Molecular target: TEAD (residue 28-104) of TEAD1 (UniProt P28347 28-104)
Experiment: fluorescence polarisation

Sequence of TEAD (residue 28-104) of TEAD1 (P28347 28-104): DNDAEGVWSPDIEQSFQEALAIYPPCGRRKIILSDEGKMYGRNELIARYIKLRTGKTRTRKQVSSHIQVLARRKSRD

B1: FITC-labeled INSM1 ZF1 (domain or fragment)
chain: not shown
modifications: FITC label (FITC rapid labeling kit), site not stated
Which Kd does the source give for B1 here?
Its Kd is 39.5 nM.

Source: paper PMC11880201 (Nature Communications, 2025)
